Measured values from the supplement of paper PMC9112550, “Optimization of the antimicrobial peptide Bac7 by deep mutational scanning” (BMC Biology, 2022).

Tested on: Escherichia coli TOP10
Test: shrunken log2 fold change of peptide-encoding DNA abundance (4.5 h post-induction vs induction); higher = less antimicrobial activity (less host growth inhibition)
Settings: time post-induction: 4.5 h; library: site-saturation at positions 5, 18, 19, 20
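Further: peptides expressed intracellularly from a pBAD plasmid library in pooled LB shake-flask culture, induced with 0.3% L-arabinose, DNA abundance read by NGS, three biological replicates, DESeq2 with apeglm shrinkage.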

Row | Sequence | shrunken log2 fold change
1 | RRIRERPPRLPRPRPRPDFGPRP | -0.0271
2 | RRIRERPPRLPRPRPRPDGHPRP | -0.00149
3 | RRIRERPPRLPRPRPRPDHCPRP | -0.0389
4 | RRIRERPPRLPRPRPRPDHGPRP | -0.00973
5 | RRIRERPPRLPRPRPRPDHPPRP | -0.0179
6 | RRIRERPPRLPRPRPRPDISPRP | 0.0621
7 | RRIRERPPRLPRPRPRPDKIPRP | -0.0617
8 | RRIRERPPRLPRPRPRPDLVPRP | -0.022
9 | RRIRERPPRLPRPRPRPDMAPRP | -0.00146
10 | RRIRERPPRLPRPRPRPDMCPRP | 0.00902
11 | RRIRERPPRLPRPRPRPDMHPRP | -0.0138
12 | RRIRERPPRLPRPRPRPDMTPRP | 0.133
13 | RRIRERPPRLPRPRPRPDMVPRP | 0.0162
14 | RRIRERPPRLPRPRPRPDPSPRP | 0.0648
15 | RRIRERPPRLPRPRPRPDRIPRP | -0.311
16 | RRIRERPPRLPRPRPRPDSWPRP | -0.563
17 | RRIRERPPRLPRPRPRPDVVPRP | 0.015
18 | RRIRERPPRLPRPRPRPDWFPRP | -0.00866
19 | RRIRERPPRLPRPRPRPDWGPRP | -0.00783
20 | RRIRERPPRLPRPRPRPDYLPRP | -0.612
21 | RRIRERPPRLPRPRPRPECGPRP | 0.612
22 | RRIRERPPRLPRPRPRPECLPRP | -0.137
23 | RRIRERPPRLPRPRPRPEDMPRP | -0.0115
24 | RRIRERPPRLPRPRPRPEGTPRP | -0.0267
25 | RRIRERPPRLPRPRPRPEHWPRP | 0.0984

Row | Sequence | shrunken log2 fold change
26 | RRIRERPPRLPRPRPRPEIPPRP | 0.151
27 | RRIRERPPRLPRPRPRPEKVPRP | -0.0174
28 | RRIRERPPRLPRPRPRPELHPRP | 0.0652
29 | RRIRERPPRLPRPRPRPEMWPRP | 0.452
30 | RRIRERPPRLPRPRPRPEPHPRP | -0.122
31 | RRIRERPPRLPRPRPRPERMPRP | -0.0648
32 | RRIRERPPRLPRPRPRPERPPRP | -0.0522
33 | RRIRERPPRLPRPRPRPESEPRP | 0.0931
34 | RRIRERPPRLPRPRPRPEVAPRP | 0.907
35 | RRIRERPPRLPRPRPRPEVIPRP | -0.00884
36 | RRIRERPPRLPRPRPRPEVLPRP | 0.28
37 | RRIRERPPRLPRPRPRPEVYPRP | -0.0514
38 | RRIRERPPRLPRPRPRPEYEPRP | 0.0303
39 | RRIRERPPRLPRPRPRPEYWPRP | 0.126
40 | RRIRERPPRLPRPRPRPFCCPRP | -0.0198
41 | RRIRERPPRLPRPRPRPFCLPRP | -0.558
42 | RRIRERPPRLPRPRPRPFDAPRP | -0.0912
43 | RRIRERPPRLPRPRPRPFDTPRP | -0.267
44 | RRIRERPPRLPRPRPRPFEDPRP | -0.0547
45 | RRIRERPPRLPRPRPRPFEWPRP | -0.132
46 | RRIRERPPRLPRPRPRPFEYPRP | 0.0143
47 | RRIRERPPRLPRPRPRPFGMPRP | -0.0947
48 | RRIRERPPRLPRPRPRPFGSPRP | 0.0942
49 | RRIRERPPRLPRPRPRPFHYPRP | -0.416
50 | RRIRERPPRLPRPRPRPFIIPRP | -0.769

Row | Sequence | shrunken log2 fold change
51 | RRIRERPPRLPRPRPRPFITPRP | -0.314
52 | RRIRERPPRLPRPRPRPFKRPRP | 0.0596
53 | RRIRERPPRLPRPRPRPFLLPRP | -0.688
54 | RRIRERPPRLPRPRPRPFLQPRP | -0.172
55 | RRIRERPPRLPRPRPRPFNDPRP | -0.0864
56 | RRIRERPPRLPRPRPRPFNIPRP | -0.0814
57 | RRIRERPPRLPRPRPRPFNPPRP | -0.442
58 | RRIRERPPRLPRPRPRPFNVPRP | -0.0305
59 | RRIRERPPRLPRPRPRPFPLPRP | -0.134
60 | RRIRERPPRLPRPRPRPFPNPRP | -0.165
61 | RRIRERPPRLPRPRPRPFPYPRP | -0.256
62 | RRIRERPPRLPRPRPRPFQCPRP | -0.018
63 | RRIRERPPRLPRPRPRPFRTPRP | -0.11
64 | RRIRERPPRLPRPRPRPFRYPRP | -0.268
65 | RRIRERPPRLPRPRPRPFSCPRP | 0.0263
66 | RRIRERPPRLPRPRPRPFTEPRP | -0.184
67 | RRIRERPPRLPRPRPRPFVCPRP | -0.582
68 | RRIRERPPRLPRPRPRPFVFPRP | -0.379
69 | RRIRERPPRLPRPRPRPFWPPRP | 0.0458
70 | RRIRERPPRLPRPRPRPFWWPRP | 0.239
71 | RRIRERPPRLPRPRPRPFYAPRP | -0.526
72 | RRIRERPPRLPRPRPRPFYRPRP | -0.111
73 | RRIRERPPRLPRPRPRPGCVPRP | 0.118
74 | RRIRERPPRLPRPRPRPGCYPRP | -0.151
75 | RRIRERPPRLPRPRPRPGEDPRP | -0.0649

Row | Sequence | shrunken log2 fold change
76 | RRIRERPPRLPRPRPRPGGSPRP | 0.154
77 | RRIRERPPRLPRPRPRPGHIPRP | -0.0236
78 | RRIRERPPRLPRPRPRPGHTPRP | -0.0164
79 | RRIRERPPRLPRPRPRPGHYPRP | -0.121
80 | RRIRERPPRLPRPRPRPGIHPRP | -0.502
81 | RRIRERPPRLPRPRPRPGIWPRP | 0.139
82 | RRIRERPPRLPRPRPRPGMVPRP | 0.217
83 | RRIRERPPRLPRPRPRPGNCPRP | 0.13
84 | RRIRERPPRLPRPRPRPGPMPRP | 0.224
85 | RRIRERPPRLPRPRPRPGRYPRP | -0.443
86 | RRIRERPPRLPRPRPRPGSCPRP | -0.0703
87 | RRIRERPPRLPRPRPRPGSGPRP | 0.101
88 | RRIRERPPRLPRPRPRPGSSPRP | -0.331
89 | RRIRERPPRLPRPRPRPGSTPRP | -0.401
90 | RRIRERPPRLPRPRPRPGTCPRP | 0.0777
91 | RRIRERPPRLPRPRPRPGTHPRP | -0.394
92 | RRIRERPPRLPRPRPRPGVSPRP | -0.00674
93 | RRIRERPPRLPRPRPRPGYFPRP | -0.0348
94 | RRIRERPPRLPRPRPRPGYQPRP | -0.00905
95 | RRIRERPPRLPRPRPRPHEKPRP | -0.00663
96 | RRIRERPPRLPRPRPRPHFKPRP | -0.342
97 | RRIRERPPRLPRPRPRPHHFPRP | -0.0117
98 | RRIRERPPRLPRPRPRPHHVPRP | 0.00979
99 | RRIRERPPRLPRPRPRPHIDPRP | -0.34
100 | RRIRERPPRLPRPRPRPHILPRP | -0.245

Row | Sequence | shrunken log2 fold change
101 | RRIRERPPRLPRPRPRPHISPRP | -0.3
102 | RRIRERPPRLPRPRPRPHKCPRP | 0.0924
103 | RRIRERPPRLPRPRPRPHLTPRP | 0.0373
104 | RRIRERPPRLPRPRPRPHPCPRP | -0.0414
105 | RRIRERPPRLPRPRPRPHPQPRP | -0.103
106 | RRIRERPPRLPRPRPRPHPSPRP | -0.222
107 | RRIRERPPRLPRPRPRPHQLPRP | 0.0377
108 | RRIRERPPRLPRPRPRPHQMPRP | -0.0399
109 | RRIRERPPRLPRPRPRPHSDPRP | -0.0192
110 | RRIRERPPRLPRPRPRPHSEPRP | -0.148
111 | RRIRERPPRLPRPRPRPHSFPRP | 0.0142
112 | RRIRERPPRLPRPRPRPHSGPRP | -0.365
113 | RRIRERPPRLPRPRPRPHSIPRP | -0.0535
114 | RRIRERPPRLPRPRPRPHSKPRP | -0.313
115 | RRIRERPPRLPRPRPRPHSNPRP | -0.255
116 | RRIRERPPRLPRPRPRPHTEPRP | -0.239
117 | RRIRERPPRLPRPRPRPHVAPRP | 0.0131
118 | RRIRERPPRLPRPRPRPHVDPRP | -0.00242
119 | RRIRERPPRLPRPRPRPHWMPRP | -0.157
120 | RRIRERPPRLPRPRPRPIALPRP | -0.0132
121 | RRIRERPPRLPRPRPRPICEPRP | 0.0105
122 | RRIRERPPRLPRPRPRPIDVPRP | -0.0231
123 | RRIRERPPRLPRPRPRPIDWPRP | -0.0206
124 | RRIRERPPRLPRPRPRPIECPRP | -0.339
125 | RRIRERPPRLPRPRPRPIEHPRP | -0.00973

Row | Sequence | shrunken log2 fold change
126 | RRIRERPPRLPRPRPRPIFCPRP | 0.0456
127 | RRIRERPPRLPRPRPRPIFKPRP | 0.138
128 | RRIRERPPRLPRPRPRPIFRPRP | -0.00741
129 | RRIRERPPRLPRPRPRPIFWPRP | 0.167
130 | RRIRERPPRLPRPRPRPIGPPRP | -0.138
131 | RRIRERPPRLPRPRPRPIGWPRP | 0.0874
132 | RRIRERPPRLPRPRPRPIHPPRP | -0.239
133 | RRIRERPPRLPRPRPRPIHWPRP | -0.0429
134 | RRIRERPPRLPRPRPRPIIGPRP | -0.249
135 | RRIRERPPRLPRPRPRPIIKPRP | -0.703
136 | RRIRERPPRLPRPRPRPIKPPRP | -0.363
137 | RRIRERPPRLPRPRPRPIKQPRP | -0.00681
138 | RRIRERPPRLPRPRPRPIKSPRP | -0.611
139 | RRIRERPPRLPRPRPRPINGPRP | 0.0683
140 | RRIRERPPRLPRPRPRPINNPRP | -0.944
141 | RRIRERPPRLPRPRPRPINRPRP | -0.017
142 | RRIRERPPRLPRPRPRPIPVPRP | -0.217
143 | RRIRERPPRLPRPRPRPIPWPRP | -0.345
144 | RRIRERPPRLPRPRPRPIQVPRP | -0.0549
145 | RRIRERPPRLPRPRPRPISDPRP | 0.00346
146 | RRIRERPPRLPRPRPRPISLPRP | -0.28
147 | RRIRERPPRLPRPRPRPISNPRP | -0.25
148 | RRIRERPPRLPRPRPRPITFPRP | -0.338
149 | RRIRERPPRLPRPRPRPITVPRP | 0.0995
150 | RRIRERPPRLPRPRPRPIWMPRP | 0.0239
